Source: patent publication US20230277625A1 (SIMCHA IL 18, published 2023)

T1: Human IL-18BP (amino acids 31-194), biotinylated (human, UniProt O95998 31-194, biotin on the AviTag (BirA ligase) where used biotinylated)
T1 construct: Soluble decoy receptor; also called hIL-18BP; recombinant IL-18BP
T1 sequence: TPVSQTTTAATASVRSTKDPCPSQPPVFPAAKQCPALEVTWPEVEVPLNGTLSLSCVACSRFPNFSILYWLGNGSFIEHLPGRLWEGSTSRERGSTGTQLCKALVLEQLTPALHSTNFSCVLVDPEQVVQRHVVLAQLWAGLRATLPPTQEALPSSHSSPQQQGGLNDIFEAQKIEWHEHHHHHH

T2: IL-18 receptor (IL-18Rα / IL-18Rβ heterodimer) on HEK-Blue IL-18 reporter cells (UniProt Q13478 19-541; O95256 20-599, limits assumed)
T2 sequence (looked up) 1: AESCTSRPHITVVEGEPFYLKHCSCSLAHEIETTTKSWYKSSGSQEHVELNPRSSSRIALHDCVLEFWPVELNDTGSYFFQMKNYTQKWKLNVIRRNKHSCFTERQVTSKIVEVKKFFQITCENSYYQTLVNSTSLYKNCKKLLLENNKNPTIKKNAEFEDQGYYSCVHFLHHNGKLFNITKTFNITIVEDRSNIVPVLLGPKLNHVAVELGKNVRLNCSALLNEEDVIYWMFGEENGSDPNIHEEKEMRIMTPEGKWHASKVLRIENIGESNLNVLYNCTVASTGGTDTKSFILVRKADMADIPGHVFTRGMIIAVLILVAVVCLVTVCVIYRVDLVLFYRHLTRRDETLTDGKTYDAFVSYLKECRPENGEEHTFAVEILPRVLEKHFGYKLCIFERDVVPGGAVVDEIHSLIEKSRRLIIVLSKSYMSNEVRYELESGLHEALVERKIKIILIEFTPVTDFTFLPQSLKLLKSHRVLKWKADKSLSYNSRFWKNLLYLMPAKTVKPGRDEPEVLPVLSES
T2 sequence (looked up) 2: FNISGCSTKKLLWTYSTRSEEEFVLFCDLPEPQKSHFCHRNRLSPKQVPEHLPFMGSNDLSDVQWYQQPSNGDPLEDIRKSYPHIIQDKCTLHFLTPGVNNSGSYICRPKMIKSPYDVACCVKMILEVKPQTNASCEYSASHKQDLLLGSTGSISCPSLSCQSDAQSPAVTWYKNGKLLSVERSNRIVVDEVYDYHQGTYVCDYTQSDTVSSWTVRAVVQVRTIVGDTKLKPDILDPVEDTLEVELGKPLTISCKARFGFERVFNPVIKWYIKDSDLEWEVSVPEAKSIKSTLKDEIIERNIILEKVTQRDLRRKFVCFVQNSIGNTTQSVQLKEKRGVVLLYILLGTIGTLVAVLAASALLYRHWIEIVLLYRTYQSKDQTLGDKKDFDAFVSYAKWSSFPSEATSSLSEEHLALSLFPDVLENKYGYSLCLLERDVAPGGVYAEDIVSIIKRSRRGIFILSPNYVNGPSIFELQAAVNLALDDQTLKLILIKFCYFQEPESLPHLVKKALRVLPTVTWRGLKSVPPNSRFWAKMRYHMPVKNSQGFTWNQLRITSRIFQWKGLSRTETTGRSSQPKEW

B1: SEQ ID NO: 94 (human D2D IL-18 variant hD2D-5F10) (ligand)
chain: HFGKLESKLSVIRNLNGQVLFIDQGNRPLFADMEASPCRDNAPRTIFIISFYKDSQPRGLAVTISVKCEKISTLSCENKIISFKEMNPPDNIKDTKSDIIFFLRSVPGHDNKMQFESSSYEGYFLACEKERDLFKLILKKEDELGDRSIMFTVQNED
notes: Engineered decoy-to-the-decoy variant
B2: SEQ ID NO: 99 (human D2D IL-18 variant hD2D-5F01) (ligand)
chain: HFGKLESKLSVIRNLNGQVLFIDQGNRPLFTDMTSSDCRDKAPRTIFIISFYKDSQPRGLAVTISVKCEKISTLSCENKIISFKEMNPPDNIKDTKSDIIFFLRSVPGPDNKFQFESSSYEGYFLACEKERDLFKLILKKEDELGDRSIMFTVQNED
notes: as for B1
B3: SEQ ID NO: 125 (human D2D IL-18 consensus hD2D-CS3) (ligand)
chain: YFGKLESKLSVIRNLNGQVLFIDQGNRPLFADMESSDCRDNAPRTIFIISFYKDSQPRGLAVTISVKCEKISTLSCENKIISFKEMNPPDNIKDTKSDIIFFLRSVPGHDNKMQFESSSYEGYFLACEKERDLFKLILKKEDELGDRSIMFTVQNED
notes: as for B1
B4: SEQ ID NO: 124 (human D2D IL-18 consensus hD2D-CS2) (ligand)
chain: YFGKLESKLSVIRNLNGQVLFIDQGNRPLFADMTSSDCRDNAPRTIFIISFYKDSQPRGMAVTISVKCEKISTLSCENKIISFKEMNPPDNIKDTKSDIIFFLRSVPGHDNKMQFESSSYEGYFLACEKERDLFKLILKKEDELGDRSIMFTVQNED
notes: as for B1
B5: SEQ ID NO: 101 (human D2D IL-18 variant hD2D-5E08) (ligand)
chain: YFGKLESKLSVIRNLNGQVLFIDQGNRPLFTDMTASPCRDNAPRTIFIISFYKDSQPRGLAVTISVKCEKISTLSCENKIISFKEMNPPDNIKDTKSDIIFFLRSVPGHDNKIQFESSSYEGYFLACEKERSLFKLILKKEDELGDRSIMFTVQNED
notes: as for B1
B6: SEQ ID NO: 123 (human D2D IL-18 consensus hD2D-CS1) (ligand)
chain: YFGKLESKLSVIRNLNGQVLFIDQGNRPLFADMTDSDCRDNAPRTIFIISMYKDSQPRGMAVTISVKCEKISTLSCENKIISFKEMNPPDNIKDTKSDIIFFLRSVPGHDNKMQFESSSYEGYFLACEKERDLFKLILKKEDELGDRSIMFTVQNED
notes: as for B1
B7: SEQ ID NO: 98 (human D2D IL-18 variant hD2D-5F02) (ligand)
chain: HFGKLESKLSVIRNLNGQVLFIDQGNRPLFGDMEASPCRDNAPRTIFIISFYKDSQPRGMAVTISVKCEKISTLSCENKIISFKEMNPPDNIKDTKSDIIFFIRSVPGADNKLQFESSSYEGYFLACEKERDLFKLILKKEDELGDRSIMFTVQNED
notes: as for B1
B8: SEQ ID NO: 120 (human D2D IL-18 variant hD2D-5B02) (ligand)
chain: YFGKLESKLSVIRNLNGQVLFIDQGNRPLFADMTSKRCRDNAPRTIFIISLYKDSQPRGFAVTISVKCEKISTLSCENKIISFKEMNPPDNIKDTKSDIIFFIRSVPGHDNKIQFESSSYEGYFLACEKERDLFKLILKKEDELGDRSIMFTVQNED
notes: as for B1
B9: SEQ ID NO: 6 (SEQ ID NO: 89 plus C38S/C68S) (ligand)
chain: YFGKLESKLSVIRNLNDQVLFIDQGNRPLFEDMTDSDSRDNAPRTIFIISKYSDSLARGLAVTISVKSEKISTLSCENKIISFKEMNPPDNIKDTKSDIIFFQRDVPGHSRKMQFESSSYEGYFLACEKERDLFKLILKKEDELGDRSIMFTVQNED
B10: SEQ ID NO: 21 (SEQ ID NO: 89 plus C38S/C68N) (ligand)
chain: YFGKLESKLSVIRNLNDQVLFIDQGNRPLFEDMTDSDSRDNAPRTIFIISKYSDSLARGLAVTISVKNEKISTLSCENKIISFKEMNPPDNIKDTKSDIIFFQRDVPGHSRKMQFESSSYEGYFLACEKERDLFKLILKKEDELGDRSIMFTVQNED
B11: SEQ ID NO: 16 (SEQ ID NO: 89 plus C38S/C68G) (ligand)
chain: YFGKLESKLSVIRNLNDQVLFIDQGNRPLFEDMTDSDSRDNAPRTIFIISKYSDSLARGLAVTISVKGEKISTLSCENKIISFKEMNPPDNIKDTKSDIIFFQRDVPGHSRKMQFESSSYEGYFLACEKERDLFKLILKKEDELGDRSIMFTVQNED
B12: SEQ ID NO: 17 (SEQ ID NO: 89 plus C38S/C68A) (ligand)
chain: YFGKLESKLSVIRNLNDQVLFIDQGNRPLFEDMTDSDSRDNAPRTIFIISKYSDSLARGLAVTISVKAEKISTLSCENKIISFKEMNPPDNIKDTKSDIIFFQRDVPGHSRKMQFESSSYEGYFLACEKERDLFKLILKKEDELGDRSIMFTVQNED
B13: SEQ ID NO: 20 (SEQ ID NO: 89 plus C38S/C68E) (ligand)
chain: YFGKLESKLSVIRNLNDQVLFIDQGNRPLFEDMTDSDSRDNAPRTIFIISKYSDSLARGLAVTISVKEEKISTLSCENKIISFKEMNPPDNIKDTKSDIIFFQRDVPGHSRKMQFESSSYEGYFLACEKERDLFKLILKKEDELGDRSIMFTVQNED
B14: SEQ ID NO: 18 (SEQ ID NO: 89 plus C38S/C68V) (ligand)
chain: YFGKLESKLSVIRNLNDQVLFIDQGNRPLFEDMTDSDSRDNAPRTIFIISKYSDSLARGLAVTISVKVEKISTLSCENKIISFKEMNPPDNIKDTKSDIIFFQRDVPGHSRKMQFESSSYEGYFLACEKERDLFKLILKKEDELGDRSIMFTVQNED

target: T1, Human IL-18BP (amino acids 31-194), …; assay: on-yeast binding isotherm (flow cytometry), drawn summary table, column IL18BP (KD)

Binder	Kd
B1	6.4 nM
B2	4.8 nM
B3	8.9 nM
B4	7.9 nM
B5	8.8 nM
B6	5.9 nM
B7	5.4 nM
B8	4.2 nM

target: T2, IL-18 receptor (IL-18Rα / IL-18Rβ …); assay: cell-based or functional assay

Binder	EC50-#1 (M), HEK-Blue reporter	EC50-#2 (M), HEK-Blue reporter
B9	1.96e-10 M	1.3e-10 M
B10	1.28e-10 M	1.24e-10 M
B11	2.05e-10 M	1.54e-10 M
B12	1.41e-10 M	1.09e-10 M
B13	1.35e-10 M	1.62e-10 M
B14	5.19e-11 M	4.48e-11 M
